± gives the uncertainty stated by the source.
B1: POU domain, class 3, transcription factor 2, residues 356 to 411; numbered along this chain, P20265 (parent)
chain: KKRTSIEVSVKGALESHFLKCPKPSAQEITSLADSLQLEKEVVRVWFCNRRQKEKR

Variants of: B1
Test: abundance fitness (aPCA) (normalised: wild type 0, dead -1); higher = more abundant; growth selection in yeast, the domain comes from the species named
Conditions: Homo sapiens

Abundance fitness: each site, then its substitutions
A26: R -0.13 ± 0.076, T -0.033 ± 0.12, I -0.05 ± 0.14, Y -0.235 ± 0.18, P -0.224 ± 0.13
Q37: L -0.245 ± 0.07, W -0.394 ± 0.12, M -0.151 ± 0.1, V -0.394 ± 0.073, Y -0.353 ± 0.14, D -0.192 ± 0.14, T -0.316 ± 0.11, I -0.63 ± 0.13, R -0.138 ± 0.074, C 0.087 ± 0.14, K -0.064 ± 0.1, P -0.916 ± 0.15, A -0.054 ± 0.071, S -0.032 ± 0.073, F -0.183 ± 0.12, N -0.077 ± 0.18
Q27: I -0.14 ± 0.14, Y -0.268 ± 0.14, T 0.02 ± 0.11, M -0.35 ± 0.14, H 0.092 ± 0.15, E -0.155 ± 0.094, F -0.327 ± 0.12, G -0.131 ± 0.061, W -0.292 ± 0.089, R -0.007 ± 0.068, D -0.08 ± 0.13, A -0.126 ± 0.085, C -0.081 ± 0.1, P -0.21 ± 0.16, K -0.014 ± 0.15, N 0.028 ± 0.22, S -0.079 ± 0.087, V -0.061 ± 0.082
P22: K -0.348 ± 0.13, V -0.713 ± 0.082, L -0.919 ± 0.11, N -0.337 ± 0.15, Q 0.137 ± 0.13, Y -0.718 ± 0.16, W -0.699 ± 0.13, R -0.367 ± 0.08, T -0.313 ± 0.1, S -0.253 ± 0.1
S35: D 0.091 ± 0.19, E 0.03 ± 0.1, A -0.086 ± 0.11, I -0.062 ± 0.15, C -0.133 ± 0.13, H -0.026 ± 0.18, M -0.095 ± 0.12, L -0.065 ± 0.088, K 0.136 ± 0.15, T 0.026 ± 0.097, Q 0.008 ± 0.13, Y -0.115 ± 0.13, G -0.033 ± 0.08, V -0.119 ± 0.11, N -0.125 ± 0.14, R 0.051 ± 0.083, P -0.961 ± 0.14, W -0.113 ± 0.11, F -0.22 ± 0.11
P24: W -0.839 ± 0.16, G -0.691 ± 0.11, L -0.936 ± 0.12, E -0.846 ± 0.21, Q -0.86 ± 0.37, F -0.999 ± 0.29, T -0.986 ± 0.31, A -0.789 ± 0.16, S -0.998 ± 0.18, I -0.919 ± 0.38, C -0.731 ± 0.19, V -0.821 ± 0.096, M -0.628 ± 0.14
E41: V -0.596 ± 0.1, M -0.791 ± 0.2, N -0.069 ± 0.18, S -0.256 ± 0.086, R -0.337 ± 0.078, P -0.697 ± 0.14, W -0.494 ± 0.11, Y -0.489 ± 0.18, L -0.881 ± 0.1, F -0.723 ± 0.22, K -0.446 ± 0.17, D -0.114 ± 0.14, T -0.303 ± 0.13, Q -0.26 ± 0.14, C -0.558 ± 0.12, G -0.408 ± 0.085, A -0.238 ± 0.12, H -0.168 ± 0.19
K40: E 0.096 ± 0.12, A -0.017 ± 0.097, F -0.004 ± 0.13, R 0.017 ± 0.066, H 0.132 ± 0.21, C -0.153 ± 0.095, G -0.085 ± 0.078, S -0.036 ± 0.085, V 0.007 ± 0.11, W -0.178 ± 0.1, L -0.147 ± 0.083, D -0.344 ± 0.16, M -0.013 ± 0.17, P -0.027 ± 0.12, N 0.021 ± 0.19, Q 0.078 ± 0.12
K23: R -0.041 ± 0.078, T 0.086 ± 0.1, D 0.093 ± 0.17, V -0.045 ± 0.092, Q -0.002 ± 0.12, N 0.105 ± 0.14, I -0.117 ± 0.16, L -0.203 ± 0.069, E 0.072 ± 0.099, M -0.077 ± 0.11, P -0.863 ± 0.17, S 0.024 ± 0.083, C 0.023 ± 0.13, Y -0.312 ± 0.16, F -0.163 ± 0.12, A -0.135 ± 0.094, W -0.336 ± 0.13, G -0.426 ± 0.095
A33: N -0.963 ± 0.33, R -0.936 ± 0.1, V -0.71 ± 0.13, T -0.83 ± 0.17, S -0.236 ± 0.087, Q -1.12 ± 0.33, P -0.794 ± 0.19, H -0.789 ± 0.25, F -0.599 ± 0.12, C -0.428 ± 0.099, E -0.55 ± 0.26, W -0.735 ± 0.17, M -0.759 ± 0.26, I -1.03 ± 0.42, Y -0.963 ± 0.2, G -0.806 ± 0.12, K -0.631 ± 0.17
D34: F 0.031 ± 0.16, T 0.055 ± 0.099, W 0.153 ± 0.083, L 0.098 ± 0.077, S -0.041 ± 0.08, K 0.191 ± 0.14, Y 0.184 ± 0.2, E -0.023 ± 0.12, P -0.719 ± 0.1, R 0.244 ± 0.073, H 0.212 ± 0.15, V -0.04 ± 0.081, G -0.1 ± 0.08, A 0.082 ± 0.092, N 0.148 ± 0.12, M 0.01 ± 0.13, Q 0.105 ± 0.11
